T1: mouse Bright, native (untagged) wild-type (mouse, UniProt Q62431 1-601)
T1 construct: range 1-601; Untagged protein, tested in three forms: expressed in CHO cells, in vitro translated, or endogenous in the mouse B cell lines BCg3R-1d and M12g3Ri; Found as a dimer in solution by size exclusion chromatography; also called native Bright; wild-type Bright
T1 sequence (looked up): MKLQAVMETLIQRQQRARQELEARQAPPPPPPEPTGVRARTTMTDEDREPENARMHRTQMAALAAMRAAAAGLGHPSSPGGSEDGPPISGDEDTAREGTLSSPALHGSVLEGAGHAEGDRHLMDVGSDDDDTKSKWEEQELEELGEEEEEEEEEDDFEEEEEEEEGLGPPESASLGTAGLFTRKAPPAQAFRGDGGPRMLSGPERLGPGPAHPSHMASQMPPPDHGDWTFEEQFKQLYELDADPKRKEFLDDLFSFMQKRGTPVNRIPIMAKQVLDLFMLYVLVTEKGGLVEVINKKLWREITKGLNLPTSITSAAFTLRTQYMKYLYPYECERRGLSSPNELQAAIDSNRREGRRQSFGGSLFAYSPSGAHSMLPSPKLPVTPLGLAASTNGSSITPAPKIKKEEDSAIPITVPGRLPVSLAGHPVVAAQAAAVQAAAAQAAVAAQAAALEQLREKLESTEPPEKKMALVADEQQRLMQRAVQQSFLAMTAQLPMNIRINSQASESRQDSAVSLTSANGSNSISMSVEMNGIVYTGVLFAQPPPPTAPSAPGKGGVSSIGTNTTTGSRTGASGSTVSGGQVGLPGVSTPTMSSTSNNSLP

T2: Bright (ARID3A/Dril1) (Homo sapiens, UniProt Q99856 SEQ:1-593)
T2 sequence: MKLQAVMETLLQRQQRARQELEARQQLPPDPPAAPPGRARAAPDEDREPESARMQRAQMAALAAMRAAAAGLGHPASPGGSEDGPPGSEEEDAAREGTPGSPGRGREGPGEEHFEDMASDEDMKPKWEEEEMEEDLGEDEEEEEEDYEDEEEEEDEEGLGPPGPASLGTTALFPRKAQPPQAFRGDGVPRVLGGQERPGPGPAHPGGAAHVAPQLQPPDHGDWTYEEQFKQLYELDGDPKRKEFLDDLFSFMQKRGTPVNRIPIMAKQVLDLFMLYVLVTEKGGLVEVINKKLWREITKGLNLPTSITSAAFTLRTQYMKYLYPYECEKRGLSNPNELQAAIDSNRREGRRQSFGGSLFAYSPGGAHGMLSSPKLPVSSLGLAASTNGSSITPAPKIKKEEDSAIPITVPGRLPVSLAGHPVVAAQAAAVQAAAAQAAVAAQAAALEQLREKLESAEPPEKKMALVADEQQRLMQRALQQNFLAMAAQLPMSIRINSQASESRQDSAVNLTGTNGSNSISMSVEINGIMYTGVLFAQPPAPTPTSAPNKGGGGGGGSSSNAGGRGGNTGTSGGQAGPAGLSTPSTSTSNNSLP

B1: mouse Bright REKLES mutant (REKLES at amino acids 455-460 changed to AEALEA), C-terminal myc-his tagged (other, UniProt Q62431 1-601, looked up)
chain: MKLQAVMETLIQRQQRARQELEARQAPPPPPPEPTGVRARTTMTDEDREPENARMHRTQMAALAAMRAAAAGLGHPSSPGGSEDGPPISGDEDTAREGTLSSPALHGSVLEGAGHAEGDRHLMDVGSDDDDTKSKWEEQELEELGEEEEEEEEEDDFEEEEEEEEGLGPPESASLGTAGLFTRKAPPAQAFRGDGGPRMLSGPERLGPGPAHPSHMASQMPPPDHGDWTFEEQFKQLYELDADPKRKEFLDDLFSFMQKRGTPVNRIPIMAKQVLDLFMLYVLVTEKGGLVEVINKKLWREITKGLNLPTSITSAAFTLRTQYMKYLYPYECERRGLSSPNELQAAIDSNRREGRRQSFGGSLFAYSPSGAHSMLPSPKLPVTPLGLAASTNGSSITPAPKIKKEEDSAIPITVPGRLPVSLAGHPVVAAQAAAVQAAAAQAAVAAQAAALEQLAEALEATEPPEKKMALVADEQQRLMQRAVQQSFLAMTAQLPMNIRINSQASESRQDSAVSLTSANGSNSISMSVEMNGIVYTGVLFAQPPPPTAPSAPGKGGVSSIGTNTTTGSRTGASGSTVSGGQVGLPGVSTPTMSSTSNNSLP
notes: range 1-601; not shown: C-terminal myc-his tag from vector pcDNA4/TO/myc-His B
B2: mutated Bright site competitor (dsDNA)
DNA 1: TAAGTATAAATATGTACATGAGTACACCCTCCACTTATTTATCTTA
DNA 2: TAAGATAAATAAGTGGAGGGTGTACTCATGTACATATTTATACTTA

Legend:
[1] = molecular target: the molecule itself; assay: size exclusion chromatography (not shown)
[2] = molecular target: T1, mouse Bright, native (untagged) …; assay: co-expression in CHO cells, anti-myc immunoprecipitation, anti-Bright blot
Method: FIGS. 11A-B—Tagged Bright proteins dimerize with native Bright. (FIG. 11A) Nuclear extracts from cells expressing Bright protein were subjected to size exclusion chromatography and protein fractions were analyzed for Bright by western blotting (lower panel). Data are presented graphically relative to molecular weight standards in the upper panel and are representative of four experiments. (FIG. 11B) C-terminal myc-his tagged Bright was either singly or coexpressed in CHO cells with native Bright. […] Immunoprecipitations using anti-myc Ab (middle panel) and anti-Sp1 as an isotype control (bottom panel) were performed with each of the transfected extracts and developed with anti-Bright reagents. Arrows indicate immunoglobulin heavy chain cross-reactive with the secondary reagent. Data are representative of two separate experiments.
To determine if the mutated proteins formed heterodimers with wild-type Bright, his-myc-tagged mutant forms of Bright were co-expressed in CHO cells with native wild-type Bright. Tagged proteins were distinguished from native Bright by the slight size differences in western blots (FIG. 11B) and were confirmed using anti-tag antibodies (not shown). Anti-myc antibodies were used to immunoprecipitate the tagged proteins and blots were developed with anti-Bright (FIG. 11B). In every case, a lower molecular weight band was detected that reflected the presence of native Bright.

[3] = molecular target: T2, Bright (ARID3A/Dril1); assay: competition; nonspecific competitor, recombinant Bright; conditions: tags: TNT rabbit reticulocyte lysate
Method: Electrophoretic mobility shift assays (EMSAs). Nuclear extracts were prepared by hypotonic lysis, protein concentrations were quantified with Bradford reagents (BioRad, Richmond, Calif.), and EMSAs were performed in 4% nondenaturing acrylamide gels after incubation for 15 min at 37° C. with gamma-³²P-labeled probe, as previously described (Buchanan et al., 1995). The prototypic Bright binding site (a 150 base pair Bam HI-Fok I fragment called bf150) from the S107 V1 5′ flanking sequence (Webb et al., 1991) was used as a probe. In some instances, antibodies were added 5 min before incubation with the probe. […] A double-stranded oligo containing the 45 base pair foot-printed Bright binding site within bf150 described in Webb et al. (1991) was used as a specific competitor in increasing concentrations and a mutated version of that oligonucleotide containing the double-stranded sequence corresponding to 5′-[…]-3′ (SEQ ID NO:6) was used as a non-specific competitor. Underlined nucleotides represent changes from the prototype. Competition assays were performed as previously described (Webb et al., 1991).
To confirm that the protein complexes that reacted with anti-Bright antibodies in FIG. 2D were specific for the Bright binding site, competition experiments were performed in the presence of double-stranded oligonucleotides spanning the Bright binding motif.

Binder	binding result [1]	binding result [2]	binding result [3]
B1	binds	binds	
B2			no binding
